Experimental data reported in the supplement of paper PMC7877785.
± gives the uncertainty stated by the source.

Experiment: self-splicing fitness, log relative to wild type (ln ratio); higher = more splicing; Tetrahymena group I intron in knt gene, E. coli kanamycin selection, DiMSum; sequences stand for … in CUCUCU…GGAGGGAAAAGUUAUCAGGCAUGCACCUGGUAGCUAGUCUUUAAACCAAUAGAUUGCAUCGGUUUAAAAGGCAAGACCGUCAAAUUGCGGGAAAGGGGUCAACAGCCGUUCAGUACCAAGUCUCAGGGGAAACUUUGAGAUGGCCUUGCAAAGGGUAUGGUAAUAAGCUGACGGACAUGGUCCUAACCACGCAGCCAAGUCCUAAGUCAACAGAUCUUCUGUUGAUAUGGAUGCAGUUCACAGACUAAAUGUCGGUCGGGGAAGAUGUAUUCUUCUCAUAAGAUAUAGUCGGACCUCUCCUUAAUGGGAGCUAGCGGAUGAAGUGAUGCAACACUGGAGCCGCUGGGAACUAAUUUGUAUGCGAAAGUAUAUUGAUUAGUUUUGGAGUACUCGUGGUCG
Method in brief: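 The eight P1ex-region nucleotides of an intron in the knt kanamycin-resistance gene on pET-22b(+) were all randomised and the library put into E. coli BL21(DE3). Six replicate transformations were grown overnight at 37°C or 30°C on LB agar with or without 25 μg/mL kanamycin, together with 100 μg/mL carbenicillin, 50 μM IPTG and 0.2% rhamnose. Colonies were pooled and amplicon-sequenced on an Illumina HiSeq 2500. Fitness from DiMSum is the error-weighted combination of wild-type-normalised replicate fold changes, kanamycin over none.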

Sequence	self-splicing fitness (ln) (30 °C)	self-splicing fitness (ln) (37 °C)
CCAGAGCAAUAUUACGAUUU	-3.77 ± 0.35	-3.59 ± 0.39
CCAGAGCAAUAUUACGCACU	-2.9 ± 0.25	
CCAGAGCAAUAUUACGCAUC	-2.56 ± 0.28	-1.99 ± 0.31
CCAGAGCAAUAUUACGCCCU	-2.65 ± 0.48	-2.07 ± 0.36
CCAGAGCAAUAUUACGCCUG		-2.66 ± 0.36
CCAGAGCAAUAUUACGCGCA	-3.16 ± 0.25	
CCAGAGCAAUAUUACGCGGA	-3.2 ± 0.34	-2.49 ± 0.24
CCAGAGCAAUAUUACGCGGU	-3.94 ± 0.23	-3.14 ± 0.33
CCAGAGCAAUAUUACGCUCA	-3.24 ± 0.38	-1.42 ± 0.37
CCAGAGCAAUAUUACGCUCG	-2.32 ± 0.28	-1.95 ± 0.38
CCAGAGCAAUAUUACGCUUG	-3.27 ± 0.26	-2.93 ± 0.35
CCAGAGCAAUAUUACGGACU	-3.62 ± 0.48	-0.487 ± 0.4
CCAGAGCAAUAUUACGGCAG	-1.8 ± 0.088	-1 ± 0.13
CCAGAGCAAUAUUACGGCCC	-2.44 ± 0.46	-1.44 ± 0.42
CCAGAGCAAUAUUACGGGAC	-2.81 ± 0.33	
CCAGAGCAAUAUUACGGGUG	-1.52 ± 0.072	-0.654 ± 0.096
CCAGAGCAAUAUUACGGUCG	-1.35 ± 0.1	-0.448 ± 0.12
CCAGAGCAAUAUUACGGUGU	-3.53 ± 0.16	-2.7 ± 0.2
CCAGAGCAAUAUUACGGUUC	-4.36 ± 0.21	-2.38 ± 0.18
CCAGAGCAAUAUUACGUGAC	-3.36 ± 0.19	-3.93 ± 0.46

Sequence	self-splicing fitness (ln) (30 °C)	self-splicing fitness (ln) (37 °C)
CCAGAGCAAUAUUACGUGAG	-0.95 ± 0.061	-0.428 ± 0.074
CCAGAGCAAUAUUACGUGCA	-1.88 ± 0.22	-2.54 ± 0.4
CCAGAGCAAUAUUACGUUCG	-2.91 ± 0.17	-1.64 ± 0.17
CCAUAGCAAUAUUACGAAAG	-2.11 ± 0.12	-0.18 ± 0.12
CCAUAGCAAUAUUACGAACC	-1.85 ± 0.5	
CCAUAGCAAUAUUACGAAUU	-3.3 ± 0.23	-2.51 ± 0.39
CCAUAGCAAUAUUACGAGAA	-0.566 ± 0.36	
CCAUAGCAAUAUUACGAGCA	-3.11 ± 0.2	-2.11 ± 0.23
CCAUAGCAAUAUUACGCACA	-3.14 ± 0.28	-1.45 ± 0.27
CCAUAGCAAUAUUACGCGGG	-3.99 ± 0.21	-2.87 ± 0.24
CCAUAGCAAUAUUACGCUAU		-3.35 ± 0.37
CCAUAGCAAUAUUACGGAAC	-3.26 ± 0.24	-1.55 ± 0.27
CCAUAGCAAUAUUACGGACG	-1.47 ± 0.11	-1.21 ± 0.14
CCAUAGCAAUAUUACGGAUU	-3.49 ± 0.19	-2.96 ± 0.24
CCAUAGCAAUAUUACGGCCA	-3.07 ± 0.37	-3.3 ± 0.42
CCAUAGCAAUAUUACGGGCG	-1.02 ± 0.097	-0.644 ± 0.11
CCAUAGCAAUAUUACGUAAG	-0.421 ± 0.055	-0.575 ± 0.07
CCAUAGCAAUAUUACGUCAU	-4.08 ± 0.31	-2.69 ± 0.17
CCAUAGCAAUAUUACGUGAU	-2.78 ± 0.097	-2.76 ± 0.16
CCAUAGCAAUAUUACGUGUA	-4.27 ± 0.25	-2.71 ± 0.22
